In series [1] the target is wild-type human Dispatched1 (hDisp1), N-terminal Flag tag and C-terminal Twin-Strep tag (human) (UniProt Q96F81).
Series [2] deals with the molecule itself. In words: SEC; purified hDisp1^NNN on Superose 6 10/300 GL in 25 mM Tris pH 8.0, 150 mM NaCl, 0.02% GDN. (In general: Size exclusion chromatography separates by hydrodynamic size, large species first.)

The results in this text go back to paper PMC8630017, “Structural insights into proteolytic activation of the human Dispatched1 transporter for Hedgehog morphogen release” (Nature Communications, 2021).

Some results are limits rather than exact numbers.

In turn, “NanoLuc-tagged human Shh, mutant E71A (from UniProt Q15465 24-462) (ligand)” displayed a Scube2-dependent Shh-NL release from HEK293T cells after 6 h, against WT Shh-NL (fold reduction) in series [1] above 2.

“NanoLuc-tagged human Shh, mutant K74A (from UniProt Q15465 24-462) (ligand)” displayed a Scube2-dependent Shh-NL release from HEK293T cells after 6 h, against WT Shh-NL (fold reduction) in series [1] above 2. Still for that read-out and setting: as for “NanoLuc-tagged human Shh, mutant L56A (from UniProt Q15465 24-462) (ligand)”, the figure is above 2; as for “NanoLuc-tagged human Shh, mutant L56K (from UniProt Q15465 24-462) (ligand)”, above 2. “NanoLuc-tagged human Shh, mutant N50A (from UniProt Q15465 24-462) (ligand)” yielded a Scube2-dependent Shh-NL release from HEK293T cells after 6 h, against WT Shh-NL (fold reduction) in series [1] above 2. “NanoLuc-tagged human Shh, mutant N81A (from UniProt Q15465 24-462) (ligand)” yielded a Scube2-dependent Shh-NL release from HEK293T cells after 6 h, against WT Shh-NL (surface localisation of this mutant reduced just below 50%) (fold reduction) in series [1] above 2. “NanoLuc-tagged human Shh, mutant V51E (from UniProt Q15465 24-462) (ligand)” had a Scube2-dependent Shh-NL release from HEK293T cells after 6 h, against WT Shh-NL (fold reduction) in series [1] above 2.

The molecule “NanoLuc-tagged human Shh, mutant Y80A (from UniProt Q15465 24-462) (ligand)” yielded a Scube2-dependent Shh-NL release from HEK293T cells after 6 h, against WT Shh-NL (fold reduction) in series [1] above 2.

B1: hDisp1^NNN (D572N, D573N, D1051N), N-terminal Flag tag and C-terminal His10 tag, purified (natural protein, human, UniProt Q96F81 1-1524, looked up)
chain: MAMSNGNNDFVVLSNSSIATSAANPSPLTPCDGDHAAQQLTPKEATRTKVSPNGCLQLNGTVKSSFLPLDNQRMPQMLPQCCHPCPYHHPLTSHSSHQECHPEAGPAAPSALASCCMQPHSEYSASLCPNHSPVYQTTCCLQPSPSFCLHHPWPDHFQHQPVQQHIANIRPSRPFKLPKSYAALIADWPVVVLGMCTMFIVVCALVGVLVPELPDFSDPLLGFEPRGTAIGQRLVTWNNMVKNTGYKATLANYPFKYADEQAKSHRDDRWSDDHYEREKREVDWNFHKDSFFCDVPSDRYSRVVFTSSGGETLWNLPAIKSMCNVDNSRIRSHPQFGDLCQRTTAASCCPSWTLGNYIAILNNRSSCQKIVERDVSHTLKLLRTCAKHYQNGTLGPDCWDMAARRKDQLKCTNVPRKCTKYNAVYQILHYLVDKDFMTPKTADYATPALKYSMLFSPTEKGESMMNIYLDNFENWNSSDGVTTITGIEFGIKHSLFQDYLLMDTVYPAIAIVIVLLVMCVYTKSMFITLMTMFAIISSLIVSYFLYRVVFHFEFFPFMNLTALIILVGIGANNAFVLCDVWNYTKFDKPHAETSETVSITLQHAALSMFVTSFTTAAAFYANYVSNITAIRCFGVYAGTAILVNYVLMVTWLPAVVVLHERYLLNIFTCFKKPQQQIYDNKSCWTVACQKCHKVLFAISEASRIFFEKVLPCIVIKFRYLWLFWFLALTVGGAYIVCINPKMKLPSLELSEFQVFRSSHPFERYDAEYKKLFMFERVHHGEELHMPITVIWGVSPEDNGNPLNPKSKGKLTLDSSFNIASPASQAWILHFCQKLRNQTFFYQTDEQDFTSCFIETFKQWMENQDCDEPALYPCCSHWSFPYKQEIFELCIKRAIMELERSTGYHLDSKTPGPRFDINDTIRAVVLEFQSTYLFTLAYEKMHQFYKEVDSWISSELSSAPEGLSNGWFVSNLEFYDLQDSLSDGTLIAMGLSVAVAFSVMLLTTWNIIISLYAIISIAGTIFVTVGSLVLLGWELNVLESVTISVAVGLSVNFAVHYGVAYRLAPDPDREGKVIFSLSRVGSAMAMAALTTFVAGAMMMPSTVLAYTQLGTFMMLIMCISWAFATFFFQCMCRCLGPQGTCGQIPLPKKLQCSAFSHALSTSPSDKGQSKTHTINAYHLDPRGPKSELEHEFYELEPLASHSCTAPEKTTYEETHICSEFFNSQAKNLGMPVHAAYNSELSKSTESDAGSALLQPPLEQHTVCHFFSLNQRCSCPDAYKHLNYGPHSCQQMGDCLCHQCSPTTSSFVQIQNGVAPLKATHQAVEGFVHPITHIHHCPCLQGRVKPAGMQNSLPRNFFLHPVQHIQAQEKIGKTNVHSLQRSIEEHLPKMAEPSSFVCRSTGSLLKTCCDPENKQRELCKNRDVSNLESSGGTENKAGGKVELSLSQTDASVNSEHFNQNEPKVLFNHLMGEAGCRSCPNNSQSCGRIVRVKCNSVDCQMPNMEANVPAVLTHSELSGESLLIKTL
notes: human Dispatched1, M1 to L1524, triple mutant in TM4 and TM10; The purified protein is a mix of uncleaved (175 kDa) and Furin-cleaved species (C145 with the His tag; N35 and N30 with the Flag tag); source: HEK293F, transiently transfected, purified (anti-Flag resin, Ni-NTA, SEC on Superose 6) in GDN; not shown: Flag, N-terminal, kept; His10, C-terminal, kept
For the molecule B1, in series [2], the binding result was “binds”.
